T1: Ycg1 (subunit within the purified pentameric condensin holocomplex) (S. cerevisiae, UniProt Q06680 1-1035)
T1 construct: Ycg1, HAWK subunit of S. cerevisiae condensin; Stood in the assay as a subunit of m2; made a molecule for the cross-links to Sgo1; source: purified from yeast as part of the pentameric condensin complex
T1 sequence (looked up): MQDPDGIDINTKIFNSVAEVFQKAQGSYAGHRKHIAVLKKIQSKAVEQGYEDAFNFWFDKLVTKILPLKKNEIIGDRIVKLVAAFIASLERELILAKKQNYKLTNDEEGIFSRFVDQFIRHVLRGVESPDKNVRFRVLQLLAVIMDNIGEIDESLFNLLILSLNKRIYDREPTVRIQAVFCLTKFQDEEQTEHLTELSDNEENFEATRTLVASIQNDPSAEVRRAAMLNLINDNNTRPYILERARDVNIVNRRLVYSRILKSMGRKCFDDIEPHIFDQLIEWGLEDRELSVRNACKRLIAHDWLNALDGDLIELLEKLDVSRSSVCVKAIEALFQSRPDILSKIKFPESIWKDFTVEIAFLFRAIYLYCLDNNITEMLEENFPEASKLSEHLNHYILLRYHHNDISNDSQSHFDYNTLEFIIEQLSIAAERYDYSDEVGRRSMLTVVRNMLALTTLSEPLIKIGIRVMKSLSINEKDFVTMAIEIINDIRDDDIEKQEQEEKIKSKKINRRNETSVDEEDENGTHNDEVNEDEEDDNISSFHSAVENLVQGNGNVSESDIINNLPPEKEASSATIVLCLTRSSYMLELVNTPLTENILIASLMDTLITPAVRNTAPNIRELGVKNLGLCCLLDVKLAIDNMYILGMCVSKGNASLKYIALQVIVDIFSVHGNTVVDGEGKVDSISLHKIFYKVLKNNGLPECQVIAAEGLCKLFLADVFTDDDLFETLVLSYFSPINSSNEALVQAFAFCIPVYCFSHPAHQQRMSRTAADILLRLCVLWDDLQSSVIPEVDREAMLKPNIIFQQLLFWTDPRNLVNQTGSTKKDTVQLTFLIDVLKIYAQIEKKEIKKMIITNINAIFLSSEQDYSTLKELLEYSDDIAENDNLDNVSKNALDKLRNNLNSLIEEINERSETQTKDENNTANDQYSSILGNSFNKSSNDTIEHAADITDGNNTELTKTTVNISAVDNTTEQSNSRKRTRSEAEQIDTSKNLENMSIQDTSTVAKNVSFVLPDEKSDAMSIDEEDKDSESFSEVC

T2: Ycg1(6-932, Δ499-555)-Brn1(384-529) (S. cerevisiae, UniProt Q06680 6-932; P38170 384-529, Δ499-555)
T2 construct: Brn1, S. cerevisiae, residues 384-529; also called Ycg1-Brn1; Ycg1-short Brn1
T2 sequence (looked up) 1: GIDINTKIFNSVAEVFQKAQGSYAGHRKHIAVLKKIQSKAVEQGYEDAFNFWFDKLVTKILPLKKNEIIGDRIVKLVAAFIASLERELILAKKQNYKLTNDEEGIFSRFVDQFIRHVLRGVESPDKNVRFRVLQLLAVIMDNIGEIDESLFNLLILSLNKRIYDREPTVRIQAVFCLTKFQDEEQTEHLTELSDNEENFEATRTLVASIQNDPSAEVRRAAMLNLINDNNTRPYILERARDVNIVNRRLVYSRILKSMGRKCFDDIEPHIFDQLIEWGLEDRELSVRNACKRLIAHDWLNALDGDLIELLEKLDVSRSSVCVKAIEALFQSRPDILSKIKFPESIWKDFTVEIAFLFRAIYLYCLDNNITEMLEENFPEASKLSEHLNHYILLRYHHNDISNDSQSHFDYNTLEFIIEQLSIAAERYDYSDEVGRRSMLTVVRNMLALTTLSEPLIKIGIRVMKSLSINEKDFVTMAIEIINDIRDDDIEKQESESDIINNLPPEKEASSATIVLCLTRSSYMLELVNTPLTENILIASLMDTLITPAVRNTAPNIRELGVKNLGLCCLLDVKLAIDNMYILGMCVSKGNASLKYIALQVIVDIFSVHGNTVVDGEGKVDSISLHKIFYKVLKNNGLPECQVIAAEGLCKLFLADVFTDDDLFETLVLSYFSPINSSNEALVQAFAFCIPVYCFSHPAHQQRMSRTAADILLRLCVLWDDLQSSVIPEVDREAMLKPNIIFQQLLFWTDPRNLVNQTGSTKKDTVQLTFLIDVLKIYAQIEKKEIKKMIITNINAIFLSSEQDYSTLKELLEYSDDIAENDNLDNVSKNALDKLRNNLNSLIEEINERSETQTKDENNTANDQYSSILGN
T2 sequence (looked up) 2: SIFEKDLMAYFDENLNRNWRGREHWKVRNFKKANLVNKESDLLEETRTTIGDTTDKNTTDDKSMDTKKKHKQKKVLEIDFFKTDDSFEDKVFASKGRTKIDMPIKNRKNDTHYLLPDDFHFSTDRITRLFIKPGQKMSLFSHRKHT

T3: Ycg1(6-932, Δ499-555) (S. cerevisiae, UniProt Q06680 6-932, Δ499-555)
T3 construct: Stood in the assay as a chain of m6; made a molecule for the cross-links
T3 sequence (looked up): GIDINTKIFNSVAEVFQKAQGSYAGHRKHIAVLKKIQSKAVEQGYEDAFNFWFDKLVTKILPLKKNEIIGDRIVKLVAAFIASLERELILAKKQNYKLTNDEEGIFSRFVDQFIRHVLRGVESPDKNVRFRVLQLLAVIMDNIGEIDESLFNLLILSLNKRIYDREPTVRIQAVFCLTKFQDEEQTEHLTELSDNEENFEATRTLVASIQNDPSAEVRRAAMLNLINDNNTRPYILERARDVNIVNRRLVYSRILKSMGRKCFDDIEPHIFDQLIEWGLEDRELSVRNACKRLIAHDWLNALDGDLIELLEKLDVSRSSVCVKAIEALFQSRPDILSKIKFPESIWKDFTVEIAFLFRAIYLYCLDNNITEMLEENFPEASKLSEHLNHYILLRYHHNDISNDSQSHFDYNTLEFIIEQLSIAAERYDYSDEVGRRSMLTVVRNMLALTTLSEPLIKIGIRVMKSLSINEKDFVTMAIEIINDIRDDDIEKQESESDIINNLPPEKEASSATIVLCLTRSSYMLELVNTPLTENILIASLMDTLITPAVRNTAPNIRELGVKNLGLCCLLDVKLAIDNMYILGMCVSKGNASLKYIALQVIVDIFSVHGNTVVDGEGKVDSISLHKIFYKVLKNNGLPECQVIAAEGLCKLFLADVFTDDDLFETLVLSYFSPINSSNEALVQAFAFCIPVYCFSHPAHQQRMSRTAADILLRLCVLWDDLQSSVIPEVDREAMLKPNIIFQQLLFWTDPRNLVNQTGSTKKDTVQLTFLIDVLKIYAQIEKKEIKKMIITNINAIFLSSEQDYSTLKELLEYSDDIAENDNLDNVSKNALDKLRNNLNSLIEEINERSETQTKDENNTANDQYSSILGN


Experiments:
Conditions in all cases: both partners purified
[1] = biological target: T1, Ycg1 (subunit within the purified …); test: cross-linking; BS3 cross-linking mass spectrometry of full length Sgo1 with condensin holo-complex, 1:1 (w:w); 25 mM HEPES pH7.5, 150 mM NaCl, 5% glycerol, 1mM DTT; 2 hours on ice; crosslinks with score>10.5
[2] = biological target: T2, Ycg1(6-932, Δ499-555)-Brn1(384-529); test: co-IP; two purified recombinant proteins incubated 2.5 hours with anti-GFP-coupled dynabeads (GFP-Sgo1 variant held); 25 mM HEPES pH 7.5, 500 mM NaCl, 10 % glycerol, 1 mM DTT, 0.1 % NP-40; silver stain
Ycg1(6-932, Δ499-555) = biological target: T3, Ycg1(6-932, Δ499-555); test: cross-linking; BS3 cross-linking mass spectrometry; Sgo1: Ycg1-Brn1 molar ratio 1.5:1; 25 mM HEPES pH7.5, 500 mM NaCl, 10% glycerol; 2 hours on ice; crosslinks with score>10.5
[3] = biological target: T2, Ycg1(6-932, Δ499-555)-Brn1(384-529); test: co-IP; two purified recombinant proteins incubated 2.5 hours with anti-V5-coupled dynabeads (V5-Sgo1 held); 25 mM HEPES pH 7.5, 500 mM NaCl, 10 % glycerol, 1 mM DTT, 0.1 % NP-40; silver stain or immunoblot

Binder	binding result [2]	binding result (Ycg1(6-932, Δ499-555))	also measured
V5-Sgo1 (FL) (natural protein, S. cerevisiae, UniProt Q08490 1-590, looked up, Sgo1 (shugoshin), S. cerevisiae, full length; Written V5-Sgo1; also called full length Sgo1; shugoshin; source: protease-deficient yeast strain (AM8184), purified (Ni2+ HiTrap IMAC, Superose 6 gel filtration)) MPKRKIAPNKESSRRTVSHDDLTPQIQEFQNLMDLESQKVENIRQSYSRQNSLLAKDNSILKIKVNSLEKKISQLVQENVTLRSKTSISEAIYRERLSNQLQVIENGIIQRFDEIFYMFENVRKNENLPSSSLRTMLKRTSSRSRSCSLSSPTYSKSYTRLSNHENNLSHESSFNKDDGPDLEPKAKKRKSSRRQSMFVSTSLEPEDETGENEPMMENSSVEVPAESHESAQVEETIDALNPEEENSDSVSNFTNSIIEYSIPEENPTEPEHSSSKLEIFNDSTNMLSTVPSNPLPLPLPGPSATLPTTTSDASTVYPSSSSSTNSHPKTKIKHSMKPPRIELKKKVIDEVMPVSNMSSNSEISFTRTRRTRGKAVDYTLPSLRAKMRRPSEKLVDATTVIDIHDLQVSKRNRETSHKRKSLSQDSIPDEPQLREVVVSKDYGTPKGKKTEDEIHEDTAHLMTTSNNNSNNKNEKKLTSNNSPKKSSPLLDITNKSENKKKSTRTKKLFKNAIVNNLSDENSTTRPSKSSKGTSNNNNNYNNFDNNNSNINNVNNKSVSFRLNEDDLAVFDLFGNGKAVKHQPKTYRTKK	–	–	binding result [1]: binds
GFP-Sgo1 (472-530) (domain or fragment, S. cerevisiae, UniProt Q08490 472-530, looked up, Sgo1, S. cerevisiae, residues 472-530 (holds CR1); also called wild type; source: E. coli BL21(DE3), purified (Ni-NTA resin, dialysis)) KNEKKLTSNNSPKKSSPLLDITNKSENKKKSTRTKKLFKNAIVNNLSDENSTTRPSKSS	binds	–	–
Brn1(384-529) (domain or fragment, S. cerevisiae, UniProt P38170 384-529, looked up, Brn1, S. cerevisiae, residues 384-529; Stood in the assay as a chain of m6; made a molecule for the cross-links; also called short Brn1) SIFEKDLMAYFDENLNRNWRGREHWKVRNFKKANLVNKESDLLEETRTTIGDTTDKNTTDDKSMDTKKKHKQKKVLEIDFFKTDDSFEDKVFASKGRTKIDMPIKNRKNDTHYLLPDDFHFSTDRITRLFIKPGQKMSLFSHRKHT	–	binds	–
V5-Sgo1 (350-590) (domain or fragment, S. cerevisiae, UniProt Q08490 350-590, looked up, Sgo1, S. cerevisiae, residues 350-590 (C-terminal region); also called C-terminus of Sgo1 (350-590); C-Sgo1; source: protease-deficient yeast strain (AM8184), galactose induced, purified as V5-Sgo1 (FL) (Ni2+ IMAC, gel filtration)) EVMPVSNMSSNSEISFTRTRRTRGKAVDYTLPSLRAKMRRPSEKLVDATTVIDIHDLQVSKRNRETSHKRKSLSQDSIPDEPQLREVVVSKDYGTPKGKKTEDEIHEDTAHLMTTSNNNSNNKNEKKLTSNNSPKKSSPLLDITNKSENKKKSTRTKKLFKNAIVNNLSDENSTTRPSKSSKGTSNNNNNYNNFDNNNSNINNVNNKSVSFRLNEDDLAVFDLFGNGKAVKHQPKTYRTKK	–	binds	binding result [3]: binds
GFP-Sgo1(350-590) (domain or fragment, S. cerevisiae, UniProt Q08490 350-590, looked up, Sgo1, S. cerevisiae, residues 350-590; codon optimized gene; Written GFP-Sgo1; also called GFP-tagged C-Sgo1; wild type) EVMPVSNMSSNSEISFTRTRRTRGKAVDYTLPSLRAKMRRPSEKLVDATTVIDIHDLQVSKRNRETSHKRKSLSQDSIPDEPQLREVVVSKDYGTPKGKKTEDEIHEDTAHLMTTSNNNSNNKNEKKLTSNNSPKKSSPLLDITNKSENKKKSTRTKKLFKNAIVNNLSDENSTTRPSKSSKGTSNNNNNYNNFDNNNSNINNVNNKSVSFRLNEDDLAVFDLFGNGKAVKHQPKTYRTKK	binds	–	–

Source: doi:10.1101/2024.03.27.586992, “Molecular basis for condensin enrichment at pericentromeres” (bioRxiv, 2024)
